Data as given in PMC6572826, “Native top-down mass spectrometry provides insights into the copper centers of membrane-bound methane monooxygenase” (Nature Communications, 2019).

T1: PmoB subunit of particulate methane monooxygenase from Methylomicrobium alcaliphilum 20Z (20Z-pMMO) (Methylomicrobium alcaliphilum 20Z, UniProt G4SZ64 33-414, methyl-lysine at Lys 36 (~100% stoichiometry))
T1 construct: PmoB subunit of pMMO, Methylomicrobium alcaliphilum 20Z; residues His 33 to Ile 414 after cleavage of the N-terminal signal peptide; theoretical mass 42,147.17 Da; also called 20Z-pMMO PmoB; source: endogenous, Mm. alcaliphilum 20Z membranes, solubilized with DDM, purified by anion exchange chromatography
T1 sequence (looked up): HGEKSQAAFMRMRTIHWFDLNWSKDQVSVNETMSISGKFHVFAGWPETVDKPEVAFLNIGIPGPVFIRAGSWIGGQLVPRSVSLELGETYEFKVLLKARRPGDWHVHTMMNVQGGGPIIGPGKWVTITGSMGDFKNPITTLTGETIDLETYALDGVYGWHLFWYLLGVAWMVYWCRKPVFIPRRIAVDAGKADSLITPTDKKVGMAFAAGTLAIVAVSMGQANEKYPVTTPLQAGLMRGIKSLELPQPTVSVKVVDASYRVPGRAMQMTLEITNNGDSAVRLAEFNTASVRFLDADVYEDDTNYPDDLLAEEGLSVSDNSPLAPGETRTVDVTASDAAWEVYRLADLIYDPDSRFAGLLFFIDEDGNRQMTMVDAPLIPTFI

B1: PmoA subunit of particulate methane monooxygenase from Methylomicrobium alcaliphilum 20Z (20Z-pMMO) (natural protein, UniProt G4SZ63 2-247, looked up)
chain: SASQSAVRSRAEAVKVSRTFDYMILFTVFFVVLGGYHIHYMLTGGDWDFWTDWKDRRLWVTVAPIVSITFPAAVQAVLWWRYRIAWGATLCVLGLLLGEWINRYFNFWGWTYFPVNFVFPSNLMPGAIVLDVILMLSNSMTLTAVVGGLAWGLLFYPGNWPIIAPLHVPVEYNGMMMTLADLQGYHYVRTGTPEYIRMVEKGTLRTFGKDVAPVSAFFSGFVSILIYFLWHFFGSWFGSEKFVQAA
modifications: initiator methionine removed (MetOFF); N-terminal acetylation (NtAc) on the new N-terminus
notes: PmoA subunit of pMMO, Methylomicrobium alcaliphilum 20Z; theoretical mass of the unmodified subunit 28,257.1 Da; found without the initiator methionine and N-terminally acetylated; also called 20Z-pMMO PmoA; source: endogenous, Mm. alcaliphilum 20Z membranes, solubilized with DDM, purified by anion exchange chromatography
B2: PmoC subunit of particulate methane monooxygenase from Methylomicrobium alcaliphilum 20Z (20Z-pMMO), truncated proteoform (natural protein, UniProt G4SZ62 7-250, looked up)
chain: SVKADAAEAPLLNKKNIIAGASLYLVFYAWVRWYEGVYGWSAGLDSFAPEFETYWMNFLYIEMVLEVLTASVLWGYIWKSRDRKVMSITPREELRRHFTHWTWLMMYGIAIYFGASYFTEQDGTWHQTIVRDTDFTPSHIIEFYLSYPIYIITGGASFLYAKTRLPTYQQGLSLQYLVVVVGPFMILPNVGLNEWGHTFWFMEELFVAPLHYGFVFFGWSALGVLGVINIELGALSKLLKKDLA
notes: PmoC subunit of pMMO, Methylomicrobium alcaliphilum 20Z; the major species is a truncated form without the first six N-terminal residues (MAATTE); theoretical mass of the whole subunit 28,851.4 Da; A minor PmoC species without the initiator methionine and with N-terminal acetylation was also seen from nanodiscs; also called truncated PmoC; 20Z-pMMO PmoC; source: endogenous, Mm. alcaliphilum 20Z …

Legend:
[1] = molecular target: T1, PmoB subunit of particulate methane …; assay: native MS; pMMO solubilized in DDM, exchanged into 200 mM ammonium acetate, pH 7.2, 0.155% (w/v) Triton X-100; protomer ejected from the micelle (MS^1), then subunits ejected from the protomer by collisional activation (MS^2); settings: both partners purified
[2] = molecular target: B1; assay: native MS; pMMO in POPC nanodiscs (MSP2N2 or MSP1E3D1), 200 mM ammonium acetate, pH 7.2; subunits ejected from the pMMO-nanodisc complex by CID at the source (MS^2) and fragmented (MS^3); no intact mass of the complex obtained; settings: both partners purified

| binding result [1] | binding result [2] | Binder |
| --- | --- | --- |
| binds |  | B1 |
| binds | binds | B2 |
